The values below come from article PMC12603982 (Angewandte Chemie (International Ed. in English), 2025).

What all share (conditions): one partner purified
Assay [1] addresses T1, human vasopressin V1a receptor (hV1aR) (human, UniProt P37288 1-418).
T1 construct: vasopressin V1a receptor, human; in membrane preparations; source: HEK293, stably expressing; membrane preparations
Nature of the assay: radioligand binding; displacement of [3H]-OT or [3H]-VP from membrane preparations of HEK293 cells stably expressing the human receptor; dose-response curves in duplicates, at least three independent experiments; Ki >10 µM assigned where <25% of the radioligand was displaced at 10 µM. Background: Loss of bound radioactivity is the signal in a displacement assay; it reports binding, not function.

Assay [2] addresses T2, human oxytocin receptor (hOTR) (human, UniProt P30559 1-389).
T2 construct: oxytocin receptor, human; in membrane preparations or on cells; constructs are in the Supporting Information; source: HEK293, stably expressing; membrane preparations (radioligand assay); free-floating cells (FACS)
T2 sequence (looked up): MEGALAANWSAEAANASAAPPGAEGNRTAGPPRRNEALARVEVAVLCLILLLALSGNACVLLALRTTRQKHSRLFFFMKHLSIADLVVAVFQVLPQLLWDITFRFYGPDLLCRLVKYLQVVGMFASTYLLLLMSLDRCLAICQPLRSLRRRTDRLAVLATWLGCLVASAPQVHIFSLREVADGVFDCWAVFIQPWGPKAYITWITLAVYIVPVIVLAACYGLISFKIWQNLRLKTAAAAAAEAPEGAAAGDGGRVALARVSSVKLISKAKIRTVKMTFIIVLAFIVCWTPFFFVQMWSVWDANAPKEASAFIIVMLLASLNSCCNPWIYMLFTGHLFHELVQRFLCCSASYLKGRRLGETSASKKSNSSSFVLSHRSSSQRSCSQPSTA
The assay is described as above.

The target in assay [3] is T3, human vasopressin V1b receptor (hV1bR) (human, UniProt P47901 1-424).
T3 construct: vasopressin V1b receptor, human; in membrane preparations; source: HEK293, stably expressing; membrane preparations
T3 sequence (looked up): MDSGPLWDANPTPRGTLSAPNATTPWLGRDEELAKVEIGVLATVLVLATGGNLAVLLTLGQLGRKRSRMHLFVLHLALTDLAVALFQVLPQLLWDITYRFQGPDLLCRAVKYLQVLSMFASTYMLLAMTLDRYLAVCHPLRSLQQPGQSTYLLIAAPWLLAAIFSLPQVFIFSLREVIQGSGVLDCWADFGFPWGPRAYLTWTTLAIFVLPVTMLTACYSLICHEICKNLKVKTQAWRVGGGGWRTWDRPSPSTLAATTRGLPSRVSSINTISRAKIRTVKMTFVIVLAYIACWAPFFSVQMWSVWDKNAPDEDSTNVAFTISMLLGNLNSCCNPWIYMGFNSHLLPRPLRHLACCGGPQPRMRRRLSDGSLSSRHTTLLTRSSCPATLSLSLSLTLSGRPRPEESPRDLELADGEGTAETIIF
The assay is described as above.

For assay [4], the target named is T4, murine vasopressin V2 receptor (mV2R) (murine, UniProt O88721 1-371).
T4 construct: vasopressin V2 receptor, murine; in membrane preparations; source: HEK293, transiently expressing; membrane preparations
Nature of the assay: radioligand binding; displacement of [3H]-OT or [3H]-VP from membrane preparations of HEK293 cells transiently expressing the murine receptor; dose-response curves in duplicates, at least three independent experiments; Ki >10 µM assigned where <25% of the radioligand was displaced at 10 µM.

For assay [5], the target named is T5, murine vasopressin V1b receptor (mV1bR) (murine, UniProt Q9WU02 1-421).
T5 construct: vasopressin V1b receptor, murine; in membrane preparations; source: HEK293, transiently expressing; membrane preparations
T5 sequence (looked up): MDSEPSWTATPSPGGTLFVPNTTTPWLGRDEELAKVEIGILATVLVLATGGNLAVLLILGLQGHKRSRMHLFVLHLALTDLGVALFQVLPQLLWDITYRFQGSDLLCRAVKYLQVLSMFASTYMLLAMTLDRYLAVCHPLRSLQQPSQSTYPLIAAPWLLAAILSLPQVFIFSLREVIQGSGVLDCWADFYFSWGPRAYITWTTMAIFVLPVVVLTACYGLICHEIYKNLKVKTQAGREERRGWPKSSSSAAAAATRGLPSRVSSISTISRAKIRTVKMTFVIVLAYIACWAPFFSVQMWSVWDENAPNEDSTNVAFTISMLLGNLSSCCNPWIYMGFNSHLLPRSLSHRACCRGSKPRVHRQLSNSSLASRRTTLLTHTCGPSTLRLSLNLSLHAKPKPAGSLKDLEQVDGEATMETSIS
Described as above.

Assay [6] deals with T6, murine vasopressin V1a receptor (mV1aR) (murine, UniProt Q62463 1-423).
T6 construct: vasopressin V1a receptor, murine; in membrane preparations; source: HEK293, transiently expressing; membrane preparations
The description is as above.

In assay [7] the target is T7, murine oxytocin receptor (mOTR) (murine, UniProt P97926 1-388).
T7 construct: oxytocin receptor, murine; in membrane preparations; source: HEK293, transiently expressing; membrane preparations
T7 sequence (looked up): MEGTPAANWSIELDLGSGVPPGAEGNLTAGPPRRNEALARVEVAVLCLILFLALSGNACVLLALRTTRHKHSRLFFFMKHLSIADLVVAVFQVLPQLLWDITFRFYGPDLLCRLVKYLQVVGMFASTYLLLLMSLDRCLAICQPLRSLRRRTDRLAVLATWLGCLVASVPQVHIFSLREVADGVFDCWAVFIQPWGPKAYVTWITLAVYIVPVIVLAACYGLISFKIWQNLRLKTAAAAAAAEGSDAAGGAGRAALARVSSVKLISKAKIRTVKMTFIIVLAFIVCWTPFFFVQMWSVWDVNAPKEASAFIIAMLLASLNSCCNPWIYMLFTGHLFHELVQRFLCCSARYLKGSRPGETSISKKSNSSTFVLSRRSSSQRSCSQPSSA
The assay is described as above.

Positions of bridges follow the written chain, without caps; N, C: chain ends. Non-standard residues stand in square brackets, D forms with d. Groups on a side chain read outwards from the residue. Primed or numbered codes have the meaning given here. No end group written: not given here. εdLys = D-Lys linked through its epsilon amine (k^ε); PEG5′ = PEG5 spacer, as named in the construct; Cy3s = Cy3s fluorophore, as named; Cy5s = Cy5s fluorophore, as named; Orn = NCCC[C@H](N)C(=O)O; Mpa = O=C(O)CCS

T1 sequence (P37288 whole entry): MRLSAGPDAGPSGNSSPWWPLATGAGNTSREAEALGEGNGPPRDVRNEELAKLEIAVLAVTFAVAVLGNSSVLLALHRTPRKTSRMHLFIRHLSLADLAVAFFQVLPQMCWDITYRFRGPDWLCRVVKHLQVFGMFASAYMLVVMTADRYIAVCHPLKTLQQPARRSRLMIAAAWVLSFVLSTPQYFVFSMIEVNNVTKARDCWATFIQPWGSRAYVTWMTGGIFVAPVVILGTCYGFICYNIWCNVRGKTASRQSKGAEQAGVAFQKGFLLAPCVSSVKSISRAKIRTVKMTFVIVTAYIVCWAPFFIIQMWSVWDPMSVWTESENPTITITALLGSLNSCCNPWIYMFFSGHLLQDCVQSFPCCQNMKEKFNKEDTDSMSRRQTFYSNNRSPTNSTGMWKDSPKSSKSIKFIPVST
T6 sequence (Q62463 whole entry): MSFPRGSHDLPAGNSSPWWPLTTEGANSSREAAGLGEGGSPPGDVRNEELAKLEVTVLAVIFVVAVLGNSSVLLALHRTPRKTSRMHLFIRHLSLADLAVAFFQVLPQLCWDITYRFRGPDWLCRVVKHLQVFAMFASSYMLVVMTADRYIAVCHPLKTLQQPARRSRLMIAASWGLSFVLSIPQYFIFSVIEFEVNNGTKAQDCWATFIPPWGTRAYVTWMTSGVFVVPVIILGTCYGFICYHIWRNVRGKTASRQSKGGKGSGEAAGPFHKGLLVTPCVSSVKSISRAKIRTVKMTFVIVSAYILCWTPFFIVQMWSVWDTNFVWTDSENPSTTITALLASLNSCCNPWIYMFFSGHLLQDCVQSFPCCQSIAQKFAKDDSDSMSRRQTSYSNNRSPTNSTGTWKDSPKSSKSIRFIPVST
T4 sequence (O88721 whole entry): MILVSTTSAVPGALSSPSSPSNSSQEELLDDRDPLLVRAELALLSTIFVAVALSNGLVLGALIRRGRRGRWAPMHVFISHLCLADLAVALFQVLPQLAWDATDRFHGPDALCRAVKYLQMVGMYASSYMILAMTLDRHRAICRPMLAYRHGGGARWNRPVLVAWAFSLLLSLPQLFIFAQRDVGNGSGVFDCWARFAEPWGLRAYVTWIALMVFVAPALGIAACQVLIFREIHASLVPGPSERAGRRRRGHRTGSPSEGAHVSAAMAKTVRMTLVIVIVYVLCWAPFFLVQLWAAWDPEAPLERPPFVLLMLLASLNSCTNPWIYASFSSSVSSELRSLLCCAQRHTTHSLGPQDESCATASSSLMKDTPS

For [Mpa]YIQNCP[Orn]([PEG5′-εdLys-Cy5s])G (disulfide 1-6) [d(Orn)^8OT‐[PEG5‐k^ε‐Cy5s]^8], the Ki in assay [1] is 11 nM; in assay [2], 1.2 nM; in assay [3], 176 nM.
[Mpa]YIQNCP[Orn]([εdLys-εdLys-Cy3s])G (disulfide 1-6) [d(Orn)^8OT‐[k^ε‐k^ε‐Cy3s]^8]: the inhibition constant Ki in assay [1] came to 3.3 nM; in assay [2], 0.8 nM; in assay [3], 10 nM.
Taken in the same sequence, the figures for [Mpa]YIQNCP[Orn](Cy5s)G (disulfide 1-6) [d(Orn)^8OT‐[Cy5s]^8] were 23 nM, 0.9 nM and 86 nM.
For [Mpa]YIQNCP[Orn]([PEG5′-PEG5′-εdLys-Cy3s])G (disulfide 1-6) [d(Orn)^8OT‐[PEG5‐PEG5‐k^ε‐Cy3s]^8], the Ki in assay [1] came to 22 nM; in assay [2] it was 1.5 nM; in assay [3] it was 199 nM.
Taken in the same sequence, the figures for [Mpa]YIQNCP[Orn]([dD-PEG5′-Cy5s])G (disulfide 1-6) [d(Orn)^8OT‐[d‐PEG5‐Cy5s]^8] were 553 nM, 6 nM and 1320 nM.
Taken in the same sequence, the figures for [Mpa]YIQNCP[Orn]([PEG5′-Cy3s])G (disulfide 1-6) [d(Orn)^8OT‐[PEG5‐Cy3s]^8] were 80 nM, 1.5 nM and 372 nM.
Taken in the same sequence, the figures for [Mpa]YIQNCP[Orn]([PEG5′-εdLys-Cy3s])G (disulfide 1-6) [d(Orn)^8OT‐[PEG5‐k^ε‐Cy3s]^8] were 21 nM, 1.4 nM and 242 nM.
In the case of [Mpa]YIQNCP[Orn]G (disulfide 1-6; not fully specified (residue 8)) [d(Orn)^8OT‐[d‐PEG5‐k^ε‐AF488]^8], the Ki in assay [1] amounted to 1430 nM; in assay [2], 22.6 nM; in assay [3], 1800 nM.

B1: Oxytocin (OT) (peptide)
peptide: CYIQNCPLG
notes: oxytocin, endogenous nonapeptide ligand of OTR; numbers count on: the mature nonapeptide
Regarding B1, the Ki in assay [4] worked out at 1570 nM; in assay [5], 416 nM; in assay [6], 1400 nM.
For [Mpa]YIQNCP[Orn]G (disulfide 1-6) [d(Orn)^8OT], the inhibitory constant (Ki) in assay [1] worked out at 0.4 nM; in assay [2] it was 0.7 nM; in assay [3], 0.8 nM.

B2: Vasopressin (VP) (peptide)
peptide: CYFQNCPRG
notes: vasopressin (arginine at position 8), endogenous nonapeptide; numbers count on: the mature nonapeptide
Consider B2, for which the figures for the inhibition constant Ki in assay [7], in assay [5] and in assay [6] were 8.1 nM, 0.4 nM and 1 nM, respectively.
With [Mpa]YIQNCP[Orn]([dD-PEG5′-εdLys-TAMRA])G (disulfide 1-6) [d(Orn)^8OT‐[d‐PEG5‐k^ε‐TAMRA]^8], the Ki was 631 nM in assay [1], 7.5 nM in assay [2] and 932 nM in assay [3].
As to [Mpa]YIQNCP[Orn]([PEG5′-Cy5s])G (disulfide 1-6) [d(Orn)^8OT‐[PEG5‐Cy5s]^8], the Ki in assay [1] amounted to 70 nM; in assay [2] it was 1.3 nM; in assay [3] it was 376 nM.
For [Mpa]INYQCP[Orn]([dD-PEG5′-εdLys-Cy3s])G (disulfide 1-6 (inferred)) [scrambled cyclic tracer dCINYQCP(Orn)G‐[d‐PEG5‐k^ε‐Cy3s]^8], the Ki in assay [7], in assay [4], in assay [5], in assay [6], in assay [1] and in assay [2] was > 10000 nM in each case. The Ki in assay [3] is > 10000 nM.

A word on the Ki: it is a dissociation constant, usually derived from enzyme kinetics or from competition with a known ligand.
